Laboratory results: US20150351390A1, “COMPOSITIONS AND METHODS FOR AUXIN-ANALOG CONJUGATION” (PIONEER HI-BRED INTERNATIONAL, INC., priority 2012, published 2015)

B1: AIGH3-14: GH3 protein, accession EFH47823 (protein, listed as Arabidopsis lyrata)
chain: MLPKFDPTDQKACLSLLEDVTTNVKQIQDSVLEAILSRNARTEYLSGFLNGQVDKQSFKKNLPVVTYEDIRPYIDRIANGEPSDLICDRPISVLLTSSGTSGGVPKLIPLTTDELEQRISFASLYRPLLYKYVEGIRERKSFMLYFVTRESETASGILVRTMITCVLKSLKPSNSFIWDQTQISPHGISTCSDTTQSMYCQLLCGLLQRDNVGRLGAPFASSFLKIIKFLEDHWPEFCSNIRTGRLSDWITDPQCVSGIGKFLTAPDPELASLIEQECSQTSWEAIVKRLWPKAKCIEAIVTGTMAQYIPLLEFYSGGLPVISTFYGSSECFIGLNLNPLSKPSDVSYTIIPCMAYFEFLEVGKDYQETGHDPAEKPVVVDLVDVKIGHDYEPVVTTFAGLYRYRLGDVLRVTGFYNNAPQFHFVGRQKVVLSIDMDKTYEEDLLKAVTNAKLLLEPHDLMLMDFTSRVDSSSFPGHYVLYWELGSKVKDAKLELDPNVLEECCFTIEESLDAVYRKGRKNDKNIGPLEIKVVKSGAFEELMNLFLSRGSSVSQYKTPRSVTNEEAVKILESNVVSEFLSRKTPSWELHELYSNR
B2: ZmACF88044: GH3 protein, accession ACF88044 (protein)
chain: MATYEDLQPYIRRIADGDRSPILSGHPVSEFLTSSGTSAGERKLMPTIEDELNRRQLLYSLQMPVMNLYVPGMDKGKALHFLFVKSETKTPGGLAARPVLTSYYKSNHFKNRPFDAYNNYTSPTAAILCADAFQSMYAQMLCGLCQRQDVLRVGAVFASGLLRAIRFLQLNWEQLAEDIEAGSLTPRVTDPSVREAVAGILRADPELAALVRSECSKGDWAGIITRIWPSTKYLDVIVTGAMAQYIPTLKYYSGGLPMACTMYASSECYFGLNLRPMCDPSEVSYTLMPNMCYFEFLPMDSAAASGGDASQLVDLARVEVGREYELVITTYAGLNRYRVGDVLQVTGFHNSAPQFRFVRRKNVLLSIESDKTDEAELQRAVERASALLRPHGAAVVEYTSQAYTKSIPGHYVIYWELLAKGPAGGAAVGEGTLERCCLEMEEALNTVYRQSRVADGSIGPLEIRVVRPGTFEELMDYAISRGASINQYKVPRCVTFPPIIELLDSRVVSSHFSPALPHWTPGQRSDSD
modifications: Zea mays
B3: AtGH3-19: GH3 protein, accession AAG60122 (protein, listed as Arabidopsis thaliana)
chain: MSLSVELKDLEVLTTNAKQIQDDVLKEILTLNANTEYLKRFLDGSSDKELFKKNVPVVSYNDVKPYIERVANGEPSDVISGGTITRFVQSTGTSGGIHKIFPVNDKYIENLGYLLAVSSLITSNDKVDEKGKKMAFLYNRLESKTPSGLALSSSFTSYFMSDYFKNRSSKCNSEYTSPDQVILCPDNNQSVYCHLLCGLSQREKVVGVSATFAHALIKAINALQIYWKELSSNIRSGHVSEWITDLDCKNAVSAILGGPDPELADVIEQECSHKSWEGIITRLWPKAKFIECIVTGQMAQYIPTLDFYSNKLPIVSMVYGSSESIFGVNVDPLSKPQDVSYTFLPNISYFEFLPIDHEEDMNTIVDLVGVKLGCYYETVVTSYFGLHRYLIGDILQVTGFYNNTPQFRFVRRKNIVLSVNSEATTEQDILKGLASATLVLESSNSMLTGFTCYADISSFPGHYVFYWELKAKDVDDVVELDENVLEECCYALEESFDALYKRLRSKEGSIGALEIKVVQQGTFDSLMEYFISKGGSVAQYKTPMCINSSETLAVLEDKVIARFYSQKSPPLNL
B4: AtGH3-12: GH3 protein, accession Q9LYU4 (protein, listed as Arabidopsis thaliana)
chain: MKPIFDINETFEKQLKDLTSNVKSIQDNLLEEIITPNTKTEYLQRFLIDRFDKELFKKNVPIVSYEDIKPYLDRVVNGESSDVISARTITGFLLSSGTSGGAQKMMPWNNKYLDNLTFIYDLRMQVITKHVKGVEEGKGMMFLFTKQESMTPSGLPARVATSSYFKSDYFKNRPSNWYYSYTSPDEVILCPNNTESLYCHLLCGLVQRDEVVRTGSIFASVMVRAIEVLKNSWEELCSNIRSGHLSNWVTDLGCQNSVSLVLGGPRPELADTIEEICNQNSWKGIVKRLWPNTKYIETVVTGSMGQYVPMLNYYCNDLPLVSTTYGSSETTFGINLDPLCKPEDVSYTFMPNMSYFEFIPMDGGDKNDVVDLEDVKLGCTYEPVVTNFAGLYRMRVGDIVLVTGFYNNAPQFKFVRRENVVLSIDSDKTNEEDLFKAVSQAKLVLESSGLDLKDFTSYADTSTFPGHYVVYLEVDTKEGEEKETAQFELDEEALSTCCLVMEESLDNVYKRCRFKDGSIGPLEIRVVRQGTFDSLMDFFISQGASTGQYKTPRCIKSGKALQVLETCVVAKFFSI
B5: AtGH3-7: GH3 protein, accession AAC00604 (protein, listed as Arabidopsis thaliana)
chain: MSLTSDLSEKSSDKMKVLEDLTSNVTQIQDNVLEEILTLNANTNYLQKFFLGSFDKESFKKNVPVVTYEDVKPYIERVVNGEPSNVISARPITGFVLSTGTSGGAQKMMPWNEKYLDNLTFMYDLRMHIISNNVKDVEKGKAMMFYFTKLESITPSGLPARVASSSYLKSNYFKNRPSNWYYSYTSPDEVTLCPDNKQNLYCHLLCGLVQRNEVTRMGSIFASVMVRAIKFLEDSWEELCSNIRSGQLSEWITDIGCRDSVSLVLGGPHPEAADTIEQICNQKCWKGIITRLWPKAKYIETIVTGSMVQYVPTLNYYSNNMLPLISTIYASSETQFGLNLNPMCKPEDVSYTFMPNVSYFEFIPVDGDKNDVVDLADVKLGCCYEAVVTNFSGLYRIRVGDILVVTGFHNKAPQFRFIRRDNVVLSIDLDKTNEDDLFKAVNNAKLTLDSSHLMLIDFTSYADISTIPGHYVVYWEVKNKNEDKKSKKHIELKEETFSECCLLMEDSLDSVYKICRFKEESVGPLEIKVVRQGTFDSLMDYFISQGASIGQYKTPRCIKSGKALEVLEENVVATFFST

Experiment: LC-MS assay of GH3 conjugation of 2,4-D with Asp or Glu
Format: biochemical
Conditions: conjugation of 2,4-D with Asp by recombinant GH3 protein; 2,4-D-Asp product by LC-MS; 5 mM 2,4-D substrate
Method: (§1) To detect and monitor the formation of acyl conjugates with 2,4-D or dicamba, a sensitive LC-MS method was developed using the respective amino acid conjugate standards. […] The reaction was performed at 30° C., 105 rpm, for 3 hours in buffer containing 20 mM Tris-HCl (pH 8.0), 5 mM MgCl2, 5 mM auxin (IAA, 2,4-D or dicamba), 5 mM ATP, 5 mM Asp or Glu, 1 mM DTT and 44 to 164 μg/mL purified GH3 protein in 100 μL reaction. After 3 hours of reaction, 400 μL 100% MeOH was added to the reaction mixture for protein precipitation. The supernatant was diluted 20× in water and then analyzed by LC-MS (AB Sciex 4000 QTrap coupled with Shimadzu Nexera UHPLC) using a Phenomenex Luna 3 μm Phenyl-Hexyl (00B-4256-Y0) column. The concentration of the conjugates was calculated based on the standards. Kinetic parameters were estimated by fitting initial velocity values to the Michaelis-Menten equation.
(§2) The GH3 superfamily conjugase activity analysis of IAA, 2,4-D or dicamba with Asp or Glu was done using LC-MS to analyze the final conjugate products as described in Example 1. Protein sequences of GH3 homologs (Table 3) were obtained from public databases (NCBI, http://www.ncbi.nlm.nih.gov/) by Blast analysis of AtGH3.17 protein sequence (accession # Q9FZ87). Coding sequences were designed for optimal expression in E. coli based on the protein sequences and synthesized. Synthesized coding sequences along with N-term his-tag coding sequences were cloned into a pET24a-based E. coli expression vector. The E. coli expression vectors were transformed into OverExpress C41(DE3) cells (Lucigen) for protein expression. Recombinant E. coli strains were inoculated into 5 ml LB media supplemented with 40 mg/L kanamycin and cultured overnight at 37° C. The overnight culture (0.5 mL) was inoculated into 50 mL LB medium plus 40 mg/L kanamycin and grown at 30° C. until OD600 reached 0.6. The cultures were induced with 0.2 mM IPTG at 16° C., 230 rpm overnight. Cells were harvested by centrifugation at 7,000 rpm for 10 mins. The cell pellet from 50 mL of cell culture was frozen and thawed twice and then lysed in 800 μL lysis buffer A (150 mM NaCl, 50 mM Tris-HCl pH 8.0, 5 mM MgCl2, 10% glycerol) plus 20 mM imidazole, 1 mM DTT, 0.2 mg/ml lysozyme, 1/200 protease inhibitor cocktail (EMD set3, EDTA free) and 1/2000 endonuclease. Lysate was then centrifuged at 13,000 rpm for 30 min at 4° C. Supernatant was loaded onto 200 μL Ni-NTA columns pre-equilibrated with buffer A with 20 mM imidazole at 4° C. Each column was then washed with (1) 2×800 μL of buffer A with 10 mM imidazole, (2) 2×800 μL of buffer A with 20 mM imidazole and (3) 2×200 μL of buffer A with 50 mM imidazole. Protein was eluted with 200 μL of buffer A with 250 mM imidazole. The concentration was measured by Bradford assay. Purified protein was used in conjugation reaction assays as described in example 1.

Molecule | kcat (hrs−1) 2,4-D-Asp [h⁻¹]
B1 | 0.140
B2 | 0.000
B3 | 0.014
B4 | 0.002
B5 | 0.000

Same assay, conditions: conjugation of 2,4-D with Glu by recombinant GH3 protein; 2,4-D-Glu product by LC-MS; 5 mM 2,4-D substrate

Molecule | kcat (hrs−1) 2,4-D-Glu [h⁻¹]
B1 | 0.322
B2 | 0.033
B3 | 0.048
B4 | 0.026
B5 | 0.000

Same assay, conditions: result in words

Molecule | 2,4-D conjugation activity with Asp or Glu
B2 | 2,4-D conjugases

Experiment: LC-MS assay of GH3 conjugation of IAA with Asp or Glu
Format: biochemical
Conditions: conjugation of IAA with Asp by recombinant GH3 protein; IAA-Asp product by LC-MS
Method: as §1, §2

Molecule | kcat (hrs−1) IAA-Asp [h⁻¹]
B1 | 0.000
B2 | 0.000
B3 | 0.000
B4 | 0.000
B5 | 0.000

Same assay, conditions: conjugation of IAA with Glu by recombinant GH3 protein; IAA-Glu product by LC-MS

Molecule | kcat (hrs−1) IAA-Glu [h⁻¹]
B1 | 1.756
B2 | 0.000
B3 | 3.177
B4 | 10.015
B5 | 5.361

Same assay, conditions: result in words

Molecule | Conjugation of Glu to IAA | IAA conjugation activity with Asp or Glu
B1 | can also conjugate Glu to IAA | 
B2 |  | IAA-inactive
B3 | can also conjugate Glu to IAA | 
B4 | can also conjugate Glu to IAA | 
B5 | can also conjugate Glu to IAA | 
